Legend:
Assay in all cases: cell-based or functional assay
[1] = target: CD28 on Jurkat/IL2 reporter cells (human) (UniProt P10747)
[2] = target: PD-L1 on K562/OKT3/PD-L1 artificial antigen presenting cells (UniProt Q9NZQ7)
CD28 (human) = CD28 (human) (UniProt P10747)
PD-L1 (human) = PD-L1 (human) (UniProt Q9NZQ7)
PD-L1 (human), sequence (Q9NZQ7 19-290): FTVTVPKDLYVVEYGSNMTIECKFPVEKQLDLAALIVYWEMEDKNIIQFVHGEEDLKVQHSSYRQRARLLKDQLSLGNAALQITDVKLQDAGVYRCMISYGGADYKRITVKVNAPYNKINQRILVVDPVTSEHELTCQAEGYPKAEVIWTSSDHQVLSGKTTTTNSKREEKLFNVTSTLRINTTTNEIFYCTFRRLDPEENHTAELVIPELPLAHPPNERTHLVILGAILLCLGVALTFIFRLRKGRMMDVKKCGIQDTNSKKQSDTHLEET

PD-L1 on K562/OKT3/PD-L1 artificial antigen presenting cells, sequence (Q9NZQ7 19-290): as above

Substance	Fold Increase over WT CD80-IgV-Fc (RLU, Jurkat/IL2 + K562/OKT3/PD-L1 reporter assay, 50 nM) [1] [fold]	Relative Luciferase Units (RLU), Jurkat/IL2 + K562/OKT3/PD-L1 reporter assay, CD80-Fc Conc 50 nM [1] [RLU]	Fold Increase over WT CD80-IgV-Fc (RLU, Jurkat/IL2 + K562/OKT3/PD-L1 reporter assay, 50 nM) [2] [fold]	Relative Luciferase Units (RLU), Jurkat/IL2 + K562/OKT3/PD-L1 reporter assay, CD80-Fc Conc 50 nM [2] [RLU]	further results
CD80 A26E/E35D/M47L/A71G IgV-Fc (inert) (Fc fusion)	8.5	1750	8.5	1750	–
CD80 E35D/Y53H/A71G/D90G/L97R IgV-Fc (inert) (Fc fusion)	8.4	1720	8.4	1720	–
CD80 E35D/D46E/M47V/A71D/D90G IgV-Fc (inert) (Fc fusion)	5.1	1040	5.1	1040	–
CD80 Q27H/E35D/D46V/M47L/A71G IgV-Fc (inert) (Fc fusion)	4.7	978	4.7	978	–
CD80 E35D/T41S/M47V/L97Q IgV-Fc (inert) (Fc fusion)	2.9	594	2.9	594	–
CD80 I30V/E35D/M47V/A71G/A91V IgV-Fc (inert) (Fc fusion)	7.3	1500	7.3	1500	–
CD80 E35D/D46E/M47V/A71D IgV-Fc (inert) (Fc fusion)	3.3	683	3.3	683	–
variant CD80 IgV-Fc (effector) E35D/M43L/L70M (Fc fusion)	–	–	–	–	IL-2 release, primary T cells; K562/OKT3 (No PD-L1); 1 nM (CD28 (human)): 8020; IL-2 release, primary T cells; K562/OKT3 (No PD-L1); 10 nM (CD28 (human)): 7710; IL-2 release, primary T cells; K562/OKT3 (No PD-L1); 100 nM (CD28 (human)): 10500; RLU, Jurkat/IL2 reporter; K562/OKT3 aAPC, FcR Dependent Cross-Linking (No PD-L1); 0.6 nM (CD28 (human)): 1350 RLU; RLU, Jurkat/IL2 reporter; K562/OKT3 aAPC, FcR Dependent Cross-Linking (No PD-L1); 1.9 nM (CD28 (human)): 1340 RLU; RLU, Jurkat/IL2 reporter; K562/OKT3 aAPC, FcR Dependent Cross-Linking (No PD-L1); 5.6 nM (CD28 (human)): 1400 RLU; RLU, Jurkat/IL2 reporter; K562/OKT3 aAPC, FcR Dependent Cross-Linking (No PD-L1); 16.7 nM (CD28 (human)): 1340 RLU; RLU, Jurkat/IL2 reporter; K562/OKT3 aAPC, FcR Dependent Cross-Linking (No PD-L1); 50 nM (CD28 (human)): 1570 RLU; RLU, Jurkat/IL2 reporter; K562/OKT3/PD-L1 aAPC, Combination of FcR and/or PD-L1 Dependent Cross-Linking; 0.6 nM (PD-L1 (human)): 1020 RLU; RLU, Jurkat/IL2 reporter; K562/OKT3/PD-L1 aAPC, Combination of FcR and/or PD-L1 Dependent Cross-Linking; 1.9 nM (PD-L1 (human)): 1250 RLU; RLU, Jurkat/IL2 reporter; K562/OKT3/PD-L1 aAPC, Combination of FcR and/or PD-L1 Dependent Cross-Linking; 5.6 nM (PD-L1 (human)): 1620 RLU; RLU, Jurkat/IL2 reporter; K562/OKT3/PD-L1 aAPC, Combination of FcR and/or PD-L1 Dependent Cross-Linking; 16.7 nM (PD-L1 (human)): 2050 RLU; RLU, Jurkat/IL2 reporter; K562/OKT3/PD-L1 aAPC, Combination of FcR and/or PD-L1 Dependent Cross-Linking; 50 nM (PD-L1 (human)): 2780 RLU
variant CD80 IgV-Fc (inert) E35G/K54E/A71D/L72P (Fc fusion)	–	–	–	–	IL-2-luciferase RLU, Jurkat + CHO/OKT3/PD-L1 aAPC, 0.6 nM (CD28 (human)): 529 RLU; IL-2-luciferase RLU, Jurkat + CHO/OKT3/PD-L1 aAPC, 1.9 nM (CD28 (human)): 489 RLU; IL-2-luciferase RLU, Jurkat + CHO/OKT3/PD-L1 aAPC, 5.6 nM (CD28 (human)): 554 RLU; IL-2-luciferase RLU, Jurkat + CHO/OKT3/PD-L1 aAPC, 16.7 nM (CD28 (human)): 504 RLU; IL-2-luciferase RLU, Jurkat + CHO/OKT3/PD-L1 aAPC, 50 nM (CD28 (human)): 476 RLU; IL-2-luciferase RLU, Jurkat + CHO/OKT3 aAPC (no PD-L1), 5.6 nM (CD28 (human)): 417 RLU; IL-2-luciferase RLU, Jurkat + CHO/OKT3 aAPC (no PD-L1), 16.7 nM (CD28 (human)): 475 RLU; IL-2-luciferase RLU, Jurkat + CHO/OKT3 aAPC (no PD-L1), 50 nM (CD28 (human)): 440 RLU; IL-2 release, primary T cells; K562/OKT3/PD-L1; 100 nM (PD-L1 (human)): 59
variant CD80 IgV-Fc (effector) E35G/K54E/A71D/L72P (Fc fusion)	–	–	–	–	IL-2 release, primary T cells; K562/OKT3 (No PD-L1); 1 nM (CD28 (human)): 7030; IL-2 release, primary T cells; K562/OKT3 (No PD-L1); 10 nM (CD28 (human)): 7900; RLU, Jurkat/IL2 reporter; K562/OKT3 aAPC, FcR Dependent Cross-Linking (No PD-L1); 0.6 nM (CD28 (human)): 1340 RLU; RLU, Jurkat/IL2 reporter; K562/OKT3 aAPC, FcR Dependent Cross-Linking (No PD-L1); 1.9 nM (CD28 (human)): 1370 RLU; RLU, Jurkat/IL2 reporter; K562/OKT3 aAPC, FcR Dependent Cross-Linking (No PD-L1); 5.6 nM (CD28 (human)): 1380 RLU; RLU, Jurkat/IL2 reporter; K562/OKT3 aAPC, FcR Dependent Cross-Linking (No PD-L1); 16.7 nM (CD28 (human)): 1430 RLU; RLU, Jurkat/IL2 reporter; K562/OKT3 aAPC, FcR Dependent Cross-Linking (No PD-L1); 50 nM (CD28 (human)): 1510 RLU; RLU, Jurkat/IL2 reporter; K562/OKT3/PD-L1 aAPC, Combination of FcR and/or PD-L1 Dependent Cross-Linking; 0.6 nM (PD-L1 (human)): 689 RLU; RLU, Jurkat/IL2 reporter; K562/OKT3/PD-L1 aAPC, Combination of FcR and/or PD-L1 Dependent Cross-Linking; 1.9 nM (PD-L1 (human)): 732 RLU; RLU, Jurkat/IL2 reporter; K562/OKT3/PD-L1 aAPC, Combination of FcR and/or PD-L1 Dependent Cross-Linking; 5.6 nM (PD-L1 (human)): 735 RLU; RLU, Jurkat/IL2 reporter; K562/OKT3/PD-L1 aAPC, Combination of FcR and/or PD-L1 Dependent Cross-Linking; 16.7 nM (PD-L1 (human)): 701 RLU; RLU, Jurkat/IL2 reporter; K562/OKT3/PD-L1 aAPC, Combination of FcR and/or PD-L1 Dependent Cross-Linking; 50 nM (PD-L1 (human)): 805 RLU
variant CD80 IgV-Fc (inert) E23G/A26S/E35D/T62N/A71D/L72V/L85M (Fc fusion)	–	–	–	–	IL-2-luciferase RLU, Jurkat + CHO/OKT3/PD-L1 aAPC, 0.6 nM (CD28 (human)): 524 RLU; IL-2-luciferase RLU, Jurkat + CHO/OKT3/PD-L1 aAPC, 5.6 nM (CD28 (human)): 659 RLU; IL-2-luciferase RLU, Jurkat + CHO/OKT3/PD-L1 aAPC, 16.7 nM (CD28 (human)): 689 RLU; IL-2-luciferase RLU, Jurkat + CHO/OKT3/PD-L1 aAPC, 50 nM (CD28 (human)): 695 RLU; IL-2-luciferase RLU, Jurkat + CHO/OKT3 aAPC (no PD-L1), 5.6 nM (CD28 (human)): 566 RLU; IL-2-luciferase RLU, Jurkat + CHO/OKT3 aAPC (no PD-L1), 16.7 nM (CD28 (human)): 560 RLU; IL-2-luciferase RLU, Jurkat + CHO/OKT3 aAPC (no PD-L1), 50 nM (CD28 (human)): 606 RLU; IL-2 release, primary T cells; K562/OKT3/PD-L1; 100 nM (PD-L1 (human)): 102

Second part, led by results:

Fold Increase over WT CD80-IgV-Fc (RLU, Jurkat/IL2 + K562/OKT3/PD-L1 reporter assay, 50 nM) [1] [fold]	Relative Luciferase Units (RLU), Jurkat/IL2 + K562/OKT3/PD-L1 reporter assay, CD80-Fc Conc 50 nM [1] [RLU]	Fold Increase over WT CD80-IgV-Fc (RLU, Jurkat/IL2 + K562/OKT3/PD-L1 reporter assay, 50 nM) [2] [fold]	Relative Luciferase Units (RLU), Jurkat/IL2 + K562/OKT3/PD-L1 reporter assay, CD80-Fc Conc 50 nM [2] [RLU]	Substance	further results
6.4	1320	6.4	1320	CD80 E35D/M38T/D46E/M47V/N48S IgV-Fc (inert) (Fc fusion)	–
7.3	1510	7.3	1510	CD80 H18Y/A26E/E35D/M47L/L85Q/D90G IgV-Fc (inert) (Fc fusion)	–
6.4	1320	6.4	1320	CD80 E35D/M47L/A71G/L85M/F92Y IgV-Fc (inert) (Fc fusion)	–
6.2	1270	6.2	1270	CD80 E35D/T41S/M43I/M47V/A71G IgV-Fc (inert) (Fc fusion)	–
7.5	1540	7.5	1540	CD80 E35D/T41S/M43I/M47L/A71G IgV-Fc (inert) (Fc fusion)	–
5	1020	5	1020	CD80 E35D/T41S/M47V/A71G/K89N IgV-Fc (inert) (Fc fusion)	–
7.1	1460	7.1	1460	CD80 E35D/D46V/M47L/V68M/L85Q/E88D IgV-Fc (inert) (Fc fusion)	–

— patent US20210130436A1
